Test results reported in the RNAGym collection of RNA variant scans (doi:10.7554/elife.80360).

B1: CPEB3 Ribozyme (parent)
chain: GGGGGCCACAGCAGAAGCGUUCACGUCGCGGCCCCUGUCAGAUUCUGGUGAAUCUGCGAAUUCUGCUGU

Variants of: B1
Experiment: self-cleavage, relative activity (ratio to wild type); higher = more cleavage; co-transcriptional

Compared with A8G U44C, A8G U46A is higher in self-cleavage: 0.55 for the first, 0.99 for the second.

Going from A8G U46C to A8G U46G, the self-cleavage rises from 0.83 to 0.86.

Going from A8G U49A to A8G U49C, the self-cleavage falls from 0.938 to 0.828.

Compared with A8G U49G, A8G U53G is lower in self-cleavage: 0.895 for the first, 0.646 for the second.

Going from A8G U55C to A8G U55G, the self-cleavage falls from 0.282 to 0.134.

First: A8G U61C
Second: A8G U61G
The self-cleavage of the first is lower: 0.142 for the first, 0.284 for the second.

Compared with A8G U62A, A8G U62C is lower in self-cleavage: 0.394 for the first, 0.253 for the second.

Compared with A8G U64A, A8G U64C is higher in self-cleavage: 0.242 for the first, 0.361 for the second.

First: A8G U67C
Second: A8G U67G
The self-cleavage of the first is lower: 0.573 for the first, 0.64 for the second.

First: A8G U69G
Second: A8U
The self-cleavage of the first is higher: 1.04 for the first, 1.01 for the second.

First: A8U A10U
Second: A8U A13C
The self-cleavage of the first is higher: 0.998 for the first, 0.855 for the second.

Compared with A8U A13G, A8U A15G is lower in self-cleavage: 1.02 for the first, 0.998 for the second.

Going from A8U A15U to A8U A16C, the self-cleavage falls from 0.882 to 0.309.

Compared with A8U A16G, A8U A16U is lower in self-cleavage: 0.947 for the first, 0.867 for the second.

Going from A8U A23G to A8U A23U, the self-cleavage rises from 0.965 to 1.

Compared with A8U A40C, A8U A40U is higher in self-cleavage: 0.639 for the first, 0.781 for the second.

Compared with A8U A42C, A8U A42U is higher in self-cleavage: 0.972 for the first, 0.995 for the second.

First: A8U A51G
Second: A8U A51U
The self-cleavage of the first is higher: 1 for the first, 0.999 for the second.

Compared with A8U A52G, A8U A52U is lower in self-cleavage: 1.03 for the first, 0.986 for the second.

First: A8U A59C
Second: A8U A59U
The self-cleavage of the first is lower: 0.601 for the first, 0.799 for the second.

Compared with A8U A60C, A8U A60G is higher in self-cleavage: 0.432 for the first, 0.939 for the second.

First: A8U A60U
Second: A8U C9G
The self-cleavage of the first is lower: 0.457 for the first, 1.01 for the second.

Going from A8U C9U to A8U C12A, the self-cleavage falls from 1.02 to 0.683.

Going from A8U C12G to A8U C18A, the self-cleavage falls from 0.897 to 0.177.

First: A8U C18G
Second: A8U C22G
The self-cleavage of the first is higher: 0.142 for the first, 0.133 for the second.

First: A8U C22U
Second: A8U C24A
The self-cleavage of the first is lower: 0.203 for the first, 0.763 for the second.

First: A8U C24G
Second: A8U C24U
The self-cleavage of the first is lower: 0.444 for the first, 0.713 for the second.

Going from A8U C27A to A8U C27G, the self-cleavage falls from 0.615 to 0.163.

First: A8U C27U
Second: A8U C29G
The self-cleavage of the first is higher: 0.294 for the first, 0.183 for the second.

Going from A8U C29U to A8U C32A, the self-cleavage rises from 0.84 to 0.877.

First: A8U C32G
Second: A8U C32U
The self-cleavage of the first is lower: 0.368 for the first, 0.944 for the second.

Compared with A8U C33G, A8U C34A is higher in self-cleavage: 0.685 for the first, 0.854 for the second.

Going from A8U C34G to A8U C34U, the self-cleavage rises from 0.718 to 0.985.

Compared with A8U C35A, A8U C35U is higher in self-cleavage: 0.257 for the first, 1.01 for the second.

First: A8U C39A
Second: A8U C39G
The self-cleavage of the first is lower: 0.864 for the first, 0.988 for the second.

First: A8U C45U
Second: A8U C54A
The self-cleavage of the first is higher: 1.03 for the first, 0.857 for the second.

Compared with A8U C54G, A8U C54U is higher in self-cleavage: 0.919 for the first, 1.03 for the second.

Going from A8U C57G to A8U C63A, the self-cleavage rises from 0.272 to 0.891.

Going from A8U C66G to A8U G11A, the self-cleavage rises from 0.826 to 0.906.

Going from A8U G11U to A8U G14A, the self-cleavage falls from 0.902 to 0.827.

First: A8U G14U
Second: A8U G17C
The self-cleavage of the first is higher: 0.785 for the first, 0.141 for the second.

First: A8U G17U
Second: A8U G19A
The self-cleavage of the first is higher: 0.491 for the first, 0.198 for the second.

Going from A8U G25A to A8U G25C, the self-cleavage falls from 0.179 to 0.0896.

Going from A8U G28C to A8U G30A, the self-cleavage rises from 0.101 to 0.963.

First: A8U G30C
Second: A8U G31A
The self-cleavage of the first is lower: 0.849 for the first, 0.925 for the second.

First: A8U G31C
Second: A8U G31U
The self-cleavage of the first is lower: 0.247 for the first, 0.806 for the second.

Compared with A8U G37A, A8U G37U is higher in self-cleavage: 0.215 for the first, 0.221 for the second.

Going from A8U G41C to A8U G41U, the self-cleavage rises from 0.809 to 0.877.

Compared with A8U G47A, A8U G47C is higher in self-cleavage: 1.01 for the first, 1.03 for the second.

Compared with A8U G47U, A8U G48A is higher in self-cleavage: 0.999 for the first, 1.03 for the second.

Going from A8U G48C to A8U G50A, the self-cleavage rises from 0.994 to 1.03.

Going from A8U G50C to A8U G56A, the self-cleavage falls from 1 to 0.957.

First: A8U G56U
Second: A8U G58C
The self-cleavage of the first is lower: 0.972 for the first, 0.988 for the second.

Compared with A8U G58U, A8U G65C is lower in self-cleavage: 1.03 for the first, 0.644 for the second.

Compared with A8U G65U, A8U G68A is higher in self-cleavage: 0.768 for the first, 0.991 for the second.

Going from A8U G68C to A8U G68U, the self-cleavage rises from 1.02 to 1.03.

First: A8U U20A
Second: A8U U20C
The self-cleavage of the first is lower: 0.116 for the first, 0.25 for the second.

First: A8U U20G
Second: A8U U21C
The self-cleavage of the first is lower: 0.163 for the first, 0.846 for the second.

Compared with A8U U21G, A8U U26A is higher in self-cleavage: 0.588 for the first, 0.893 for the second.

Going from A8U U26C to A8U U26G, the self-cleavage rises from 0.924 to 0.97.

Going from A8U U36A to A8U U36C, the self-cleavage rises from 0.229 to 0.887.

Going from A8U U38A to A8U U38C, the self-cleavage rises from 0.871 to 1.01.

Going from A8U U38G to A8U U43A, the self-cleavage rises from 0.221 to 0.899.

Compared with A8U U43C, A8U U44C is lower in self-cleavage: 0.951 for the first, 0.933 for the second.

Going from A8U U44G to A8U U46A, the self-cleavage rises from 0.932 to 1.

Compared with A8U U46C, A8U U46G is higher in self-cleavage: 0.998 for the first, 1.01 for the second.

First: A8U U49G
Second: A8U U53C
The self-cleavage of the first is higher: 1.02 for the first, 0.901 for the second.

First: A8U U55C
Second: A8U U55G
The self-cleavage of the first is higher: 0.912 for the first, 0.823 for the second.

Compared with A8U U61A, A8U U61G is higher in self-cleavage: 0.944 for the first, 0.959 for the second.

First: A8U U62C
Second: A8U U64A
The self-cleavage of the first is higher: 0.994 for the first, 0.969 for the second.

Going from A8U U67G to A8U U69A, the self-cleavage rises from 1.03 to 1.05.

Going from A8U U69C to C9A A10U, the self-cleavage falls from 1.06 to 1.05.

Going from C9A A13G to C9A A13U, the self-cleavage falls from 0.901 to 0.725.

First: C9A A15G
Second: C9A A16U
The self-cleavage of the first is higher: 1.03 for the first, 0.957 for the second.

Compared with C9A A23G, C9A A23U is lower in self-cleavage: 1.02 for the first, 1 for the second.

First: C9A A40C
Second: C9A A40U
The self-cleavage of the first is lower: 0.71 for the first, 0.969 for the second.

First: C9A A42C
Second: C9A A51C
The self-cleavage of the first is lower: 0.999 for the first, 1.03 for the second.

First: C9A A51G
Second: C9A A51U
The self-cleavage of the first is lower: 1.03 for the first, 1.04 for the second.

Compared with C9A A59C, C9A A59G is higher in self-cleavage: 0.854 for the first, 1.03 for the second.

Going from C9A A60C to C9A A60G, the self-cleavage rises from 0.364 to 1.04.

Compared with C9A A60U, C9A C12G is higher in self-cleavage: 0.632 for the first, 0.936 for the second.

Compared with C9A C12U, C9A C18A is lower in self-cleavage: 1.02 for the first, 0.188 for the second.

First: C9A C18U
Second: C9A C24G
The self-cleavage of the first is higher: 0.919 for the first, 0.697 for the second.

C9A C27G gave a self-cleavage of 0.256.
